Test results reported in article PMC3689434 (Biochemistry, 2013).
Like-named read-outs stand apart in the source and are kept apart here.

Assays:
[1] = biological target: the molecule itself; assay: zonal velocity sedimentation in a glycerol gradient
[2] = biological target: the molecule itself; assay: as above; remark: listed apart in the source

B1: full-length Mycobacterium smegmatis polynucleotide phosphorylase (PNPase) (enzyme, UniProt A0QVQ5 1-763, looked up)
chain: MSVVELEDGVYESTAVIDNGSFGTRTIRFETGRLAQQAAGSAVAYLDDETMLLSATTASKNPKDHFDFFPLTVDVEERMYAAGRIPGSFFRREGRPSTDAILTCRLIDRPLRPSFVDGLRNEIQVVVTVMSLDPKDLYDVLAINAASMSTQLAGLPFSGPVGGARIALIDGTWVAFPTVEQLERAVFDMVVAGRIVGDGDSADVAIMMVEAEATENVVELVAGGAQAPTEAVVAEGLEAAKPFIKALCAAQQELADRAAKPAGEYPVFPDYEADVYDAVASVATEALAEALTIAGKTERNDRTDEIKVEVLERLAEPYAGREKEIGAAFRSLTKKLVRQRILTDHFRIDGRGITDIRALSAEVAVIPRAHGSALFERGETQILGVTTLDMIKMAQQIDSLGPENTKRYMHHYNFPPYSTGETGRVGSPKRREIGHGALAERALVPVLPSIEEFPYAIRQVSEALGSNGSTSMGSVCASTLALLNAGVPLKAPVAGIAMGLVSDDVDVDGKVEKRYVALTDILGAEDAFGDMDFKVAGTKDFVTALQLDTKLDGIPSQVLAGALSQAKDARLTILDVMAEAIDRPDEMSPYAPRITTIKVPVDKIGEVIGPKGKMINSITEETGAQISIEDDGTVFVGAADGLSAQAAIDKINAIANPQLPKVGERFLGTVVKTTDFGAFVSLLPGRDGLVHISKLGKGKRIAKVEDVVKVGDKLRVEIADIDNRGKISLVLVAEESAESAESAGDKGAEKAEGAAADVTPAEA
[1]
  stoichiometry N: 3

B2: M. smegmatis PNPase-(1-656) lacking the S1 domain (domain or fragment, Mycobacterium smegmatis, UniProt A0QVQ5 1-656, looked up)
chain: MSVVELEDGVYESTAVIDNGSFGTRTIRFETGRLAQQAAGSAVAYLDDETMLLSATTASKNPKDHFDFFPLTVDVEERMYAAGRIPGSFFRREGRPSTDAILTCRLIDRPLRPSFVDGLRNEIQVVVTVMSLDPKDLYDVLAINAASMSTQLAGLPFSGPVGGARIALIDGTWVAFPTVEQLERAVFDMVVAGRIVGDGDSADVAIMMVEAEATENVVELVAGGAQAPTEAVVAEGLEAAKPFIKALCAAQQELADRAAKPAGEYPVFPDYEADVYDAVASVATEALAEALTIAGKTERNDRTDEIKVEVLERLAEPYAGREKEIGAAFRSLTKKLVRQRILTDHFRIDGRGITDIRALSAEVAVIPRAHGSALFERGETQILGVTTLDMIKMAQQIDSLGPENTKRYMHHYNFPPYSTGETGRVGSPKRREIGHGALAERALVPVLPSIEEFPYAIRQVSEALGSNGSTSMGSVCASTLALLNAGVPLKAPVAGIAMGLVSDDVDVDGKVEKRYVALTDILGAEDAFGDMDFKVAGTKDFVTALQLDTKLDGIPSQVLAGALSQAKDARLTILDVMAEAIDRPDEMSPYAPRITTIKVPVDKIGEVIGPKGKMINSITEETGAQISIEDDGTVFVGAADGLSAQAAIDKINAIAN
[2]
  stoichiometry N: 1 to 3

B3: M. smegmatis PNPase-(1-591) lacking the KH and S1 domains (domain or fragment, Mycobacterium smegmatis, UniProt A0QVQ5 1-591, looked up)
chain: MSVVELEDGVYESTAVIDNGSFGTRTIRFETGRLAQQAAGSAVAYLDDETMLLSATTASKNPKDHFDFFPLTVDVEERMYAAGRIPGSFFRREGRPSTDAILTCRLIDRPLRPSFVDGLRNEIQVVVTVMSLDPKDLYDVLAINAASMSTQLAGLPFSGPVGGARIALIDGTWVAFPTVEQLERAVFDMVVAGRIVGDGDSADVAIMMVEAEATENVVELVAGGAQAPTEAVVAEGLEAAKPFIKALCAAQQELADRAAKPAGEYPVFPDYEADVYDAVASVATEALAEALTIAGKTERNDRTDEIKVEVLERLAEPYAGREKEIGAAFRSLTKKLVRQRILTDHFRIDGRGITDIRALSAEVAVIPRAHGSALFERGETQILGVTTLDMIKMAQQIDSLGPENTKRYMHHYNFPPYSTGETGRVGSPKRREIGHGALAERALVPVLPSIEEFPYAIRQVSEALGSNGSTSMGSVCASTLALLNAGVPLKAPVAGIAMGLVSDDVDVDGKVEKRYVALTDILGAEDAFGDMDFKVAGTKDFVTALQLDTKLDGIPSQVLAGALSQAKDARLTILDVMAEAIDRPDEMSPYA
[2]
  binding result: binds
